# Experimental data from paper PMC9482650, “Quantitative fragmentomics allow affinity mapping of interactomes” (Nature Communications, 2022).
# T1: ARHGEF11, O15085
# T1 sequence (O15085 42-136, limits assumed, looked up): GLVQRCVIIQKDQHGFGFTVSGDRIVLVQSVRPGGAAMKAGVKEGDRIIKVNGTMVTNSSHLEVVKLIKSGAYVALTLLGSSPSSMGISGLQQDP
# T2: GRIP1_5, Q9Y3R0
# T2 sequence (Q9Y3R0 568-668, limits assumed, looked up): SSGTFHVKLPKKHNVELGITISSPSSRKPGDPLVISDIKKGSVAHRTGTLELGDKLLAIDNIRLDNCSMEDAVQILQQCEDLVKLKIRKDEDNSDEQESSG
# T3: GRIP1_7, Q9Y3R0
# T3 sequence (Q9Y3R0 999-1096, limits assumed, looked up): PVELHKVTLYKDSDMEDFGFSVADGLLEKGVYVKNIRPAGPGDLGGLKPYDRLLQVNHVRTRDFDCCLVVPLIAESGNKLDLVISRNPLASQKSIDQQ
# T4: LIN7A, O14910
# T4 sequence (O14910 103-200, limits assumed, looked up): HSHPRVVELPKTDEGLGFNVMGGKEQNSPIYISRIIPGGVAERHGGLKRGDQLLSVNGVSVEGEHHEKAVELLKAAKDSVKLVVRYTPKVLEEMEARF
# T5: MPP6, Q9NZW5
# T5 sequence (Q9NZW5 125-219, limits assumed, looked up): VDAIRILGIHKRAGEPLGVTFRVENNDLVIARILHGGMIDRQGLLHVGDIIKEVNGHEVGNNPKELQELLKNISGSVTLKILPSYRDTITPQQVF
# T6: MPP7, Q5T2T1
# T6 sequence (Q5T2T1 134-230, limits assumed, looked up): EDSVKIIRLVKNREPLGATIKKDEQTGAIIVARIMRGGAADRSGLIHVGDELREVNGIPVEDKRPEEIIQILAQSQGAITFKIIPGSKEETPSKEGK
# T7: PCLO, Q9Y6V0
# T7 sequence (Q9Y6V0 4491-4600, limits assumed, looked up): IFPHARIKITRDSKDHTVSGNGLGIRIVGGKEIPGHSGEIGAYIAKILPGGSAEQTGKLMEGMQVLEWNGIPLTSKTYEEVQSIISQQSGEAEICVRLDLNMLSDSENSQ
# T8: PDZRN3_1, Q9UPQ7
# T8 sequence (Q9UPQ7 244-349, limits assumed, looked up): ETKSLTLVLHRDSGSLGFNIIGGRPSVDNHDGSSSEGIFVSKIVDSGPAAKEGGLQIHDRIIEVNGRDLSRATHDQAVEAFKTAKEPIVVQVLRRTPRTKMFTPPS
# T9: PTPN13_1, Q12923
# T9 sequence (Q12923 1088-1188, limits assumed, looked up): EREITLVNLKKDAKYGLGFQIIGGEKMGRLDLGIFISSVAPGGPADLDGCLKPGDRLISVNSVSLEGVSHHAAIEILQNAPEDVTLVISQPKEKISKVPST
# T10: SYNJ2BP, P57105
# T10 sequence (P57105 8-110, limits assumed, looked up): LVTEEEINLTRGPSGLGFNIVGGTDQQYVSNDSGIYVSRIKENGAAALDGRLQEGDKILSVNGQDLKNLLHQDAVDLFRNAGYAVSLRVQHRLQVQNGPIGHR
# Key:
# Assay in all cases: holdup assay
# Parameters in all cases: key: below the threshold = too weak to quantify, mostly under pKd 3.1 to 4
# Conditions in all cases: plain residues with an end cap or a label only (N-terminal biotin on a linker: ado-ado)
# AHNAK1, Q09666 = molecular target: AHNAK1, Q09666
# Chain of AHNAK1, Q09666 (Q09666 4-100): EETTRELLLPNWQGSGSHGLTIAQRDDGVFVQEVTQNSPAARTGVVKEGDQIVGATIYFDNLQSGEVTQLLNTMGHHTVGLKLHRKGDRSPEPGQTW
# ARHGEF11, O15085 = molecular target: T1, ARHGEF11, O15085
# DLG4_2, P78352 = molecular target: DLG4_2, P78352
# Chain of DLG4_2, P78352 (P78352 155-259): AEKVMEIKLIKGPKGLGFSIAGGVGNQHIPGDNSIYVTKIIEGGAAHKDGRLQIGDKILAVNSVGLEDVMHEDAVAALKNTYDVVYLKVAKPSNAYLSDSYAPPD
# FRMPD2_1, Q68DX3 = molecular target: FRMPD2_1, Q68DX3
# Chain of FRMPD2_1, Q68DX3 (Q68DX3 770-861): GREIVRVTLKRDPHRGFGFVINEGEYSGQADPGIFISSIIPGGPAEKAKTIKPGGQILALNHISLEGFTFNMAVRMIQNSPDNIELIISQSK
# GIPC2, Q8TF65 = molecular target: GIPC2, Q8TF65
# Chain of GIPC2, Q8TF65 (Q8TF65 112-203): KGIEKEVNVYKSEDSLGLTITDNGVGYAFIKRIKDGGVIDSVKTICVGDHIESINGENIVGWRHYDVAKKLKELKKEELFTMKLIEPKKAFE
# GRASP, Q7Z6J2 = molecular target: GRASP, Q7Z6J2
# Chain of GRASP, Q7Z6J2 (Q7Z6J2 96-193): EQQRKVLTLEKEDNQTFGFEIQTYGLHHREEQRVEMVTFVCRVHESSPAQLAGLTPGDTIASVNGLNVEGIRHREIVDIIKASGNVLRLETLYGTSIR
# GRID2IP_1, A4D2P6 = molecular target: GRID2IP_1, A4D2P6
# Chain of GRID2IP_1, A4D2P6 (A4D2P6 1-87): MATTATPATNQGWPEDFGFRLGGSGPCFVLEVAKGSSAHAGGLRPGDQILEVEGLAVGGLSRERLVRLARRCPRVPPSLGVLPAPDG
# GRIP1_5, Q9Y3R0 = molecular target: T2, GRIP1_5, Q9Y3R0
# GRIP1_7, Q9Y3R0 = molecular target: T3, GRIP1_7, Q9Y3R0
# GRIP2_3, Q9C0E4 = molecular target: GRIP2_3, Q9C0E4
# Chain of GRIP2_3, Q9C0E4 (Q9C0E4 238-339): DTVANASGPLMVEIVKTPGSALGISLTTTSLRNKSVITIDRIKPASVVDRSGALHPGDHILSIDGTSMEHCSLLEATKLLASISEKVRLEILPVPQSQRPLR
# GRIP2_6, Q9C0E4 = molecular target: GRIP2_6, Q9C0E4
# Chain of GRIP2_6, Q9C0E4 (Q9C0E4 648-740): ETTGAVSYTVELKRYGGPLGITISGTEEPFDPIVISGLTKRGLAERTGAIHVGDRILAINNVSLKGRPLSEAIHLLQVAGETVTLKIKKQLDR
# HTRA1, Q92743 = molecular target: HTRA1, Q92743
# Chain of HTRA1, Q92743 (Q92743 360-477): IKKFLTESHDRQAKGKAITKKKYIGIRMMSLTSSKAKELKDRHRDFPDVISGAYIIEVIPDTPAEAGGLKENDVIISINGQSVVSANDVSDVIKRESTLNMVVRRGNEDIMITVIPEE
# Inadl_4, Q8NI35 = molecular target: Inadl_4, Q8NI35
# Chain of Inadl_4, Q8NI35 (Q8NI35 547-651): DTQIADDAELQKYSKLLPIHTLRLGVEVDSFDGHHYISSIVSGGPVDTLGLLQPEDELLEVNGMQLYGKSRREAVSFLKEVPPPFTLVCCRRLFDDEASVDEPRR
# LIN7A, O14910 = molecular target: T4, LIN7A, O14910
# MAGI1_1, Q96QZ7 = molecular target: MAGI1_1, Q96QZ7
# Chain of MAGI1_1, Q96QZ7 (Q96QZ7 1-106): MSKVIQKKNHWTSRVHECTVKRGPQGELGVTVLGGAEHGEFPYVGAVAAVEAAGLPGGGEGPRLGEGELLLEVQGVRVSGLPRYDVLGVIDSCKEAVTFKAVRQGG
# MAGI1_2, Q96QZ7 = molecular target: MAGI1_2, Q96QZ7
# Chain of MAGI1_2, Q96QZ7 (Q96QZ7 456-580): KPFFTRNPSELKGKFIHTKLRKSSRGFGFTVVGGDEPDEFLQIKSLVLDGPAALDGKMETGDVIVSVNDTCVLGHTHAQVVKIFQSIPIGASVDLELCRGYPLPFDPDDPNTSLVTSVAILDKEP
# MAGI2_3, Q86UL8 = molecular target: MAGI2_3, Q86UL8
# Chain of MAGI2_3, Q86UL8 (Q86UL8 600-682): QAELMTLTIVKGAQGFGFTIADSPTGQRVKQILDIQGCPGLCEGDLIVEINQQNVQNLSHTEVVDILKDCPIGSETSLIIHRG
# MAGI2_5, Q86UL8 = molecular target: MAGI2_5, Q86UL8
# Chain of MAGI2_5, Q86UL8 (Q86UL8 915-1017): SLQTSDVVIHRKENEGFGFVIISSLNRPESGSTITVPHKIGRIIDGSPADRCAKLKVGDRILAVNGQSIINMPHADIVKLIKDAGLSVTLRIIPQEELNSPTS
# MAST2, Q6P0Q8 = molecular target: MAST2, Q6P0Q8
# Chain of MAST2, Q6P0Q8 (Q6P0Q8 1099-1202): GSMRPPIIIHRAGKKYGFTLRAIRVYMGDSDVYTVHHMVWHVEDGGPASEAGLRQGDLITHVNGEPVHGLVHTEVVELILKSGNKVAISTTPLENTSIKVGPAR
# MPP6, Q9NZW5 = molecular target: T5, MPP6, Q9NZW5
# MPP7, Q5T2T1 = molecular target: T6, MPP7, Q5T2T1
# NHERF4_2, Q86UT5 = molecular target: NHERF4_2, Q86UT5
# Chain of NHERF4_2, Q86UT5 (Q86UT5 220-308): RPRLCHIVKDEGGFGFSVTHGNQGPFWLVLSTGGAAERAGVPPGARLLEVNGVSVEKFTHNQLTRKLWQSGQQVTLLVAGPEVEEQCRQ
# PCLO, Q9Y6V0 = molecular target: T7, PCLO, Q9Y6V0
# PDZRN3_1, Q9UPQ7 = molecular target: T8, PDZRN3_1, Q9UPQ7
# PTPN13_1, Q12923 = molecular target: T9, PTPN13_1, Q12923
# SCRIB_2, Q14160 = molecular target: SCRIB_2, Q14160
# Chain of SCRIB_2, Q14160 (Q14160 857-960): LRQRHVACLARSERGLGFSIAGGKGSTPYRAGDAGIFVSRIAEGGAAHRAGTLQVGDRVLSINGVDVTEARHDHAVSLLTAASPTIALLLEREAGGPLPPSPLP
# SYNJ2BP, P57105 = molecular target: T10, SYNJ2BP, P57105
Binder,"pKd (AHNAK1, Q09666)","pKd (ARHGEF11, O15085)","pKd (DLG4_2, P78352)","pKd (FRMPD2_1, Q68DX3)","pKd (GIPC2, Q8TF65)","pKd (GRASP, Q7Z6J2)","pKd (GRID2IP_1, A4D2P6)","pKd (GRIP1_5, Q9Y3R0)","pKd (GRIP1_7, Q9Y3R0)","pKd (GRIP2_3, Q9C0E4)","pKd (GRIP2_6, Q9C0E4)","pKd (HTRA1, Q92743)","pKd (Inadl_4, Q8NI35)","pKd (LIN7A, O14910)","pKd (MAGI1_1, Q96QZ7)","pKd (MAGI1_2, Q96QZ7)","pKd (MAGI2_3, Q86UL8)","pKd (MAGI2_5, Q86UL8)","pKd (MAST2, Q6P0Q8)","pKd (MPP6, Q9NZW5)",other results
"PALKNGQYWV [CSPG4, Q6UVK1]",below the threshold,3.8,below the threshold,3.82,below the threshold,below the threshold,below the threshold,below the threshold,5.63,below the threshold,3.58,5.1,below the threshold,below the threshold,below the threshold,below the threshold,below the threshold,below the threshold,4.07,3.83,"pKd (MPP7, Q5T2T1): 3.96; pKd (NHERF4_2, Q86UT5): below the threshold; pKd (PCLO, Q9Y6V0): below the threshold; pKd (PDZRN3_1, Q9UPQ7): below the threshold; pKd (PTPN13_1, Q12923): below the threshold; pKd (SCRIB_2, Q14160): below the threshold; pKd (SYNJ2BP, P57105): below the threshold"
"PEKVSNTTVV [IGSF5, Q9NSI5]",below the threshold,4.24,4.49,below the threshold,below the threshold,4.38,below the threshold,below the threshold,below the threshold,below the threshold,below the threshold,4.49,below the threshold,below the threshold,below the threshold,3.54,3.51,3.64,4.99,below the threshold,"pKd (MPP7, Q5T2T1): below the threshold; pKd (NHERF4_2, Q86UT5): below the threshold; pKd (PCLO, Q9Y6V0): below the threshold; pKd (PDZRN3_1, Q9UPQ7): below the threshold; pKd (PTPN13_1, Q12923): below the threshold; pKd (SCRIB_2, Q14160): below the threshold; pKd (SYNJ2BP, P57105): 3.51"
"FLVTEFNVML [DFNB31, Q9P202]",below the threshold,3.95,below the threshold,below the threshold,below the threshold,3.72,below the threshold,below the threshold,below the threshold,below the threshold,4.06,4.4,below the threshold,below the threshold,below the threshold,below the threshold,below the threshold,below the threshold,5.15,below the threshold,"pKd (MPP7, Q5T2T1): below the threshold; pKd (NHERF4_2, Q86UT5): below the threshold; pKd (PCLO, Q9Y6V0): below the threshold; pKd (PDZRN3_1, Q9UPQ7): below the threshold; pKd (PTPN13_1, Q12923): below the threshold; pKd (SCRIB_2, Q14160): below the threshold; pKd (SYNJ2BP, P57105): below the threshold"

# Continued, in another order:
"pKd (AHNAK1, Q09666)","pKd (ARHGEF11, O15085)","pKd (DLG4_2, P78352)","pKd (FRMPD2_1, Q68DX3)","pKd (GIPC2, Q8TF65)","pKd (GRASP, Q7Z6J2)","pKd (GRID2IP_1, A4D2P6)","pKd (GRIP1_5, Q9Y3R0)","pKd (GRIP1_7, Q9Y3R0)","pKd (GRIP2_3, Q9C0E4)","pKd (GRIP2_6, Q9C0E4)","pKd (HTRA1, Q92743)","pKd (Inadl_4, Q8NI35)","pKd (LIN7A, O14910)","pKd (MAGI1_1, Q96QZ7)","pKd (MAGI1_2, Q96QZ7)","pKd (MAGI2_3, Q86UL8)","pKd (MAGI2_5, Q86UL8)","pKd (MAST2, Q6P0Q8)","pKd (MPP6, Q9NZW5)",Binder,other results
below the threshold,4.4,4.09,3.65,below the threshold,below the threshold,below the threshold,3.54,3.48,below the threshold,below the threshold,3.53,below the threshold,below the threshold,below the threshold,below the threshold,below the threshold,below the threshold,below the threshold,below the threshold,"AHGSTRDQSI [KCNB1, Q14721]","pKd (MPP7, Q5T2T1): below the threshold; pKd (NHERF4_2, Q86UT5): below the threshold; pKd (PCLO, Q9Y6V0): below the threshold; pKd (PDZRN3_1, Q9UPQ7): below the threshold; pKd (PTPN13_1, Q12923): below the threshold; pKd (SCRIB_2, Q14160): below the threshold; pKd (SYNJ2BP, P57105): below the threshold"
below the threshold,4.95,3.58,below the threshold,below the threshold,5.36,below the threshold,below the threshold,below the threshold,below the threshold,below the threshold,3.92,below the threshold,below the threshold,below the threshold,below the threshold,below the threshold,4.45,5.9,3.95,"EAVTVESTSL [SLC22A11, Q9NSA0]","pKd (MPP7, Q5T2T1): below the threshold; pKd (NHERF4_2, Q86UT5): below the threshold; pKd (PCLO, Q9Y6V0): below the threshold; pKd (PDZRN3_1, Q9UPQ7): 4.24; pKd (PTPN13_1, Q12923): below the threshold; pKd (SCRIB_2, Q14160): 3.79; pKd (SYNJ2BP, P57105): 4.15"
